Reference: patent publication US20050186180A1

Target: murine B7-2 (recombinant, expressed from rV-B7-2 in BSC-1 cells) (murine) (UniProt P42082)
Experiment: flow cytometry, BSC-1 cells infected with rV-B7-2 (10 MOI), FITC-conjugated antibody

Chain of UniProt P42082 (P42082 24-309): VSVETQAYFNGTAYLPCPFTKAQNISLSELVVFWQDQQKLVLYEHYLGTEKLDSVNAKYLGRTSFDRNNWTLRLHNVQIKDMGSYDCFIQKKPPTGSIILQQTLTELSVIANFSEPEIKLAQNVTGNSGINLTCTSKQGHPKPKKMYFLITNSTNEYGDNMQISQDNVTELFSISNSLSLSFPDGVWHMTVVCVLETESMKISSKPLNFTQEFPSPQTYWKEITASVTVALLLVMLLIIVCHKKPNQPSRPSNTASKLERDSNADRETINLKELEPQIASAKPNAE

With “Rat-anti-mouse B7-2 (GL-1) monoclonal antibody (Pharmingen)” as the substance, how does the mean fluorescence read?
Its mean fluorescence is 1800.

And the percent of cells positive?
Its percent of cells positive is 98.8%.
